# Experiments:
# [1] = biological target: MHC Class II products on splenic antigen-presenting cells of SJL mice (H-2 s) (mouse); assay: flow cytometry, inhibition of binding to SJL splenic APC; competitor: biotinylated peptide Ia
# [2] = biological target: MHC Class II products on splenic antigen-presenting cells of SJL mice (H-2 s) (mouse); assay: flow cytometry, inhibition of binding to SJL splenic APC; competitor: biotinylated peptide IIIa
# [3] = biological target: T1, MHC Class II products on splenic antigen-presenting cells of BALB/c mice (H-2 d) (mouse) (UniProt P04228); assay: flow cytometry, inhibition of binding to BALB/c splenic APC; competitor: biotinylated peptide Ia
# T1 sequence (alpha): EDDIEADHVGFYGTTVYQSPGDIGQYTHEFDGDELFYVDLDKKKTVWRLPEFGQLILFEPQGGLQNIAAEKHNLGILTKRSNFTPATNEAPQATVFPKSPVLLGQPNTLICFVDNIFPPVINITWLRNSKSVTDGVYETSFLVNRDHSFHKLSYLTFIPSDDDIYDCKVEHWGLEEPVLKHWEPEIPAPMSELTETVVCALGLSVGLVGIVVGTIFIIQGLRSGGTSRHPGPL
# T1 sequence (beta): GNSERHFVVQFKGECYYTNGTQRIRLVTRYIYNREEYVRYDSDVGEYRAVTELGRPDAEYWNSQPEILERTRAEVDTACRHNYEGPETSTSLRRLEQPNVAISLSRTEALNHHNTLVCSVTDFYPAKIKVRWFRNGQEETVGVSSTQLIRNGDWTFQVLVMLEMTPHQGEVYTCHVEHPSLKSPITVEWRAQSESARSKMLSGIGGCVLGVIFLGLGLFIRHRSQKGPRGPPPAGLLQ
# [4] = biological target: MHC Class II products on splenic antigen-presenting cells of C3H.SW mice (H-2 b) (mouse) (UniProt P14434); assay: flow cytometry, inhibition of binding to C3H.SW splenic APC; competitor: biotinylated peptide Ia
# [5] = biological target: MHC Class II products on splenic antigen-presenting cells of C57BL/6 mice (H-2 b) (mouse) (UniProt P14434); assay: flow cytometry, inhibition of binding to C57BL/6 splenic APC; competitor: biotinylated peptide Ia
# [6] = biological target: T1, MHC Class II products on splenic antigen-presenting cells of BALB/c mice (H-2 d) (mouse); assay: flow cytometry, inhibition of binding to BALB/c splenic APC; competitor: biotinylated peptide IIIa
# [7] = biological target: MHC Class II products on splenic antigen-presenting cells of C3H.SW mice (H-2 b) (mouse) (UniProt P14434); assay: flow cytometry, inhibition of binding to C3H.SW splenic APC; competitor: biotinylated peptide IIIa
# [8] = biological target: MHC Class II products on splenic antigen-presenting cells of C57BL/6 mice (H-2 b) (mouse) (UniProt P14434); assay: flow cytometry, inhibition of binding to C57BL/6 splenic APC; competitor: biotinylated peptide IIIa
%inhibition [1] [%],%inhibition [2] [%],%inhibition [3] [%],%inhibition [4] [%],%inhibition [5] [%],%inhibition [6] [%],%inhibition [7] [%],%inhibition [8] [%],Substance
100,92.8,–,–,–,–,–,–,10.3.6.2 (anti-I-A^s) (antibody)
–,–,0,60,82,0,84.4,59.3,"34-5-3 (anti-I-A^b, Pharmingen) (antibody)"
0,0,76.7,0,0,100,25,0,"MKD6 (anti-I-A^d, Beckton-Dickinson) (antibody)"
